Source: patent publication US20230293673A1 (LA JOLLA INSTITUTE FOR IMMUNOLOGY, published 2023)

Target: T1, gH ectodomain, FLAG-tagged and lacking its transmembrane anchor (gHecto^F_TBopt) (human cytomegalovirus (HCMV) strain TB40, UniProt P12824 24-709)
T1 sequence: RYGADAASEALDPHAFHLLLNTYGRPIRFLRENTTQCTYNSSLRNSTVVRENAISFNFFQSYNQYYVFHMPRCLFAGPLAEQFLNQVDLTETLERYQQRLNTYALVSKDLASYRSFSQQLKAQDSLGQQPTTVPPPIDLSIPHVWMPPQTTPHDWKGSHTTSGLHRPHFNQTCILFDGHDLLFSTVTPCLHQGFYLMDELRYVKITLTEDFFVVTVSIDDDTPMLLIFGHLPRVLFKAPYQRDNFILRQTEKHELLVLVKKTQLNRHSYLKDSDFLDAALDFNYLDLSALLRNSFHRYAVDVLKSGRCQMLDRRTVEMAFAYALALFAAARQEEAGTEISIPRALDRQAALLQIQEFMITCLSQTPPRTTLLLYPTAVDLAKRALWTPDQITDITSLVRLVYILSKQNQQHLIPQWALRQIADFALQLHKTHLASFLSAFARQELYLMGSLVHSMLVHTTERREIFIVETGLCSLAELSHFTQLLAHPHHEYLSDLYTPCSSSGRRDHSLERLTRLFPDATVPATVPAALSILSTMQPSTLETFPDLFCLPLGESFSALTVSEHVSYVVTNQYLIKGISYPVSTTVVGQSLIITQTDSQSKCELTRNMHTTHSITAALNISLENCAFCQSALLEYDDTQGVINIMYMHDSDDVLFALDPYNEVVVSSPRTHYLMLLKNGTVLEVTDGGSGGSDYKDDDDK
Assay: His-tag purification from Expi293F supernatant after co-expression, Western blot (FIG. 2B)

B1: octahistidine-tagged UL141 ectodomain (UL141ecto_3C His) (other)
chain: DIAEKMWAENYETTSPAPVLVAEGEQVTIPCTVMTHSWPMVSIRARFCRSHDGSDELILDAVKGHRLMNGLQYRLPYATWNFSQLHLGQIFSLTFNVSTDTAGMYECVLRNYSHGLIMQRFVILTQLETLSRPDEPCCTPALGRYSLGDQIWSPTPWRLRNHDCGMYRGFQRNYFYIGRADAEDCWKPACPDEEPDRCWTVIQRYRLPGDCYRSQPHPPKFLPVTPAPPADIDTGMSPWATR
notes: extracellular domain; not shown: C-terminal '3C' site and octahistidine tag
- binding result: binds
